Experimental data reported in US20140221287A1, “Amylin Peptides and Derivatives and Uses Thereof” (ASTRAZENECA PHARMACEUTICALS LP, priority 2011, published 2014).
Values belong to the binder of their own block, whether it stands above or below them. No end group written: not given here.

Target: amylin receptor in membranes prepared from the nucleus accumbens portion of the brain (rat) (rat)
Assay: displacement of 125I-rat amylin from rat nucleus accumbens membranes

B2: Cmpd 22, [K^21(mPEG40KD)]-Cmpd 4 (peptide)
peptide: CNTATCATQRLANFLVRSSK(mPEG40KD)NLGPVLPPTNVGSNTY-NH2
modifications: ends and bridges not checked
IC50: 112 nM

B6: Cmpd 20, mPEG40KD-Cmpd 2 (peptide)
peptide: mPEG40KD-CNTATCATQRLANFLVRSSNNLGPVLPPTNVGSNTY-NH2
modifications: ends and bridges not checked
IC50: 78 nM

B7: Cmpd 26, [K^31(mPEG40KD)]-Cmpd 8 (peptide)
peptide: CNTATCATQRLANFLVRSSNNLGPVLPPTK(mPEG40KD)VGSNTY-NH2
modifications: ends and bridges not checked
IC50: 75 nM

B8: Cmpd 21, [K^21(mPEG40KD)]-Cmpd 3 (peptide)
peptide: KCNTATCATQRLANFLVRSSK(mPEG40KD)NLGPVLPPTNVGSNTY-NH2
modifications: ends and bridges not checked
IC50: 104 nM

Further binders by falling IC50, results first:

IC50: 470 nM
B3: Cmpd 27, [K^26(Y-shaped-mPEG4OKD)]-Cmpd 5 (peptide)
peptide: KCNTATCATQRLANFLVRSSNNLGPK(Y‑shaped‑mPEG40KD)LPPTNVGSNTY-NH2
modifications: ends and bridges not checked

IC50: 86 nM
B9: Cmpd 25, [K^31(mPEG40KD)]-Cmpd 7 (peptide)
peptide: KCNTATCATQRLANFLVRSSNNLGPVLPPTK(mPEG40KD)VGSNTY-NH2
modifications: ends and bridges not checked

IC50: 66 nM
B1: Cmpd 23, [K^26(mPEG40KD)]-Cmpd 5 (peptide)
peptide: KCNTATCATQRLANFLVRSSNNLGPK(mPEG40KD)LPPTNVGSNTY-NH2
modifications: ends and bridges not checked

IC50: 54 nM
B4: Cmpd 24, [K^26(mPEG40KD)]-Cmpd 6 (peptide)
peptide: CNTATCATQRLANFLVRSSNNLGPK(mPEG40KD)LPPTNVGSNTY-NH2
modifications: ends and bridges not checked

IC50: 0.42 nM
B5: Cmpd 2 ([desLys^1]-Cmpd 1) (peptide)
peptide: CNTATCATQRLANFLVRSSNNLGPVLPPTNVGSNTY-NH2
modifications: ends and bridges not checked
